The data set relates to Escherichia coli TOP10. Briefly: shrunken log2 fold change of peptide-encoding DNA abundance (4.5 h post-induction vs induction); higher = less antimicrobial activity (less host growth inhibition). Particulars: time post-induction: 4.5 h; library: site-saturation at positions 5, 18, 19, 20.

Here are results for 91 sequences from the supplement of paper PMC9112550, “Optimization of the antimicrobial peptide Bac7 by deep mutational scanning” (BMC Biology, 2022).
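Note: peptides expressed intracellularly from a pBAD plasmid library in pooled LB shake-flask culture, induced with 0.3% L-arabinose, DNA abundance read by NGS, three biological replicates, DESeq2 with apeglm shrinkage.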

In the case of RRIRKRPPRLPRPRPRPWMMPRP, the “shrunken log2 fold change” value stood at 0.211.

Take RRIRTRPPRLPRPRPRPFDWPRP: the “shrunken log2 fold change” value was 0.0371.

With RRIRPRPPRLPRPRPRPTGTPRP, the “shrunken log2 fold change” value came to 0.104.

Take RRIRIRPPRLPRPRPRPEPSPRP: the “shrunken log2 fold change” value is 3.27.

In the case of RRIRIRPPRLPRPRPRPDINPRP, the “shrunken log2 fold change” value was -0.0484.

Regarding RRIRFRPPRLPRPRPRPHFPPRP, the “shrunken log2 fold change” value was -0.212.

Consider RRIRIRPPRLPRPRPRPAVPPRP, for which the “shrunken log2 fold change” value is -0.181.

As for RRIRERPPRLPRPRPRPDQCPRP, the “shrunken log2 fold change” value is -0.308.

For the sequence RRIRCRPPRLPRPRPRPWCCPRP, the “shrunken log2 fold change” value was -0.649.

As for RRIRPRPPRLPRPRPRPLMSPRP, the “shrunken log2 fold change” value was -0.443.

RRIRTRPPRLPRPRPRPVALPRP: the “shrunken log2 fold change” value was 0.0946.

On to RRIRIRPPRLPRPRPRPFHGPRP, for which the “shrunken log2 fold change” value is -0.146.

For RRIRRRPPRLPRPRPRPSYLPRP, the “shrunken log2 fold change” value is -0.36.

With RRIRERPPRLPRPRPRPVEWPRP, the “shrunken log2 fold change” value was -0.00804.

Turning to RRIRRRPPRLPRPRPRPYDNPRP, the “shrunken log2 fold change” value is -0.636.

For RRIRTRPPRLPRPRPRPEMRPRP, the “shrunken log2 fold change” value is 0.825.

Turning to RRIRMRPPRLPRPRPRPYSGPRP, the “shrunken log2 fold change” value was -0.00278.

RRIRFRPPRLPRPRPRPWHRPRP: the “shrunken log2 fold change” value worked out at 2.08.

Consider RRIRHRPPRLPRPRPRPRTSPRP, for which the “shrunken log2 fold change” value is 0.245.

On to RRIRERPPRLPRPRPRPENQPRP, for which the “shrunken log2 fold change” value is -0.174.

Turning to RRIRTRPPRLPRPRPRPAEPPRP, the “shrunken log2 fold change” value amounted to 0.392.

Regarding RRIRMRPPRLPRPRPRPDECPRP, the “shrunken log2 fold change” value is 2.8.

RRIRDRPPRLPRPRPRPWPGPRP: the “shrunken log2 fold change” value amounted to 0.104.

Turning to RRIRARPPRLPRPRPRPNIKPRP, the “shrunken log2 fold change” value is -0.14.

For the sequence RRIRGRPPRLPRPRPRPDKVPRP, the “shrunken log2 fold change” value amounted to 0.32.

Regarding RRIRTRPPRLPRPRPRPNSMPRP, the “shrunken log2 fold change” value is -0.496.

Consider RRIRMRPPRLPRPRPRPFTKPRP, for which the “shrunken log2 fold change” value is -0.319.

Turning to RRIRERPPRLPRPRPRPDCLPRP, the “shrunken log2 fold change” value was -0.428.

Take RRIRDRPPRLPRPRPRPVEIPRP: the “shrunken log2 fold change” value is -0.0399.

Take RRIRNRPPRLPRPRPRPAKYPRP: the “shrunken log2 fold change” value is -0.134.

As for RRIRGRPPRLPRPRPRPEYVPRP, the “shrunken log2 fold change” value came to 0.244.

With RRIRPRPPRLPRPRPRPLFQPRP, the “shrunken log2 fold change” value was -0.0669.

Regarding RRIRDRPPRLPRPRPRPSIIPRP, the “shrunken log2 fold change” value is -0.266.

RRIRPRPPRLPRPRPRPLEAPRP: the “shrunken log2 fold change” value worked out at 0.249.

On to RRIRTRPPRLPRPRPRPHWFPRP, for which the “shrunken log2 fold change” value was -0.132.

For the sequence RRIRCRPPRLPRPRPRPATKPRP, the “shrunken log2 fold change” value was 0.0383.

Turning to RRIRCRPPRLPRPRPRPCHDPRP, the “shrunken log2 fold change” value is -0.69.

As for RRIRGRPPRLPRPRPRPWTRPRP, the “shrunken log2 fold change” value is -0.0814.

Take RRIRLRPPRLPRPRPRPAYYPRP: the “shrunken log2 fold change” value was -0.253.

As to RRIRCRPPRLPRPRPRPIQDPRP, the “shrunken log2 fold change” value is -0.49.

RRIRFRPPRLPRPRPRPCVMPRP: the “shrunken log2 fold change” value was -0.143.

Regarding RRIRSRPPRLPRPRPRPHRDPRP, the “shrunken log2 fold change” value was -0.141.

For RRIRKRPPRLPRPRPRPHFHPRP, the “shrunken log2 fold change” value came to 0.0831.

Turning to RRIRTRPPRLPRPRPRPSCGPRP, the “shrunken log2 fold change” value was -0.0561.

Turning to RRIRIRPPRLPRPRPRPFNRPRP, the “shrunken log2 fold change” value stood at 0.0284.

As to RRIRVRPPRLPRPRPRPATQPRP, the “shrunken log2 fold change” value was -0.0949.

RRIRERPPRLPRPRPRPDIEPRP: the “shrunken log2 fold change” value was -0.0223.

Turning to RRIRKRPPRLPRPRPRPSAFPRP, the “shrunken log2 fold change” value was 0.619.

Consider RRIRKRPPRLPRPRPRPYTWPRP, for which the “shrunken log2 fold change” value is -0.231.

Regarding RRIRIRPPRLPRPRPRPIQMPRP, the “shrunken log2 fold change” value is -0.203.

RRIRARPPRLPRPRPRPCESPRP: the “shrunken log2 fold change” value turned out to be 0.214.

For RRIRMRPPRLPRPRPRPLMTPRP, the “shrunken log2 fold change” value came to 1.3.

Consider RRIRFRPPRLPRPRPRPDMTPRP, for which the “shrunken log2 fold change” value was -0.0215.

Turning to RRIRCRPPRLPRPRPRPYDNPRP, the “shrunken log2 fold change” value is -0.498.

Turning to RRIRPRPPRLPRPRPRPRGGPRP, the “shrunken log2 fold change” value was determined as 0.605.

On to RRIRWRPPRLPRPRPRPSWQPRP, for which the “shrunken log2 fold change” value was -0.0268.

With RRIRERPPRLPRPRPRPHYSPRP, the “shrunken log2 fold change” value was -0.16.

With RRIRIRPPRLPRPRPRPSVMPRP, the “shrunken log2 fold change” value was -0.286.

On to RRIRGRPPRLPRPRPRPHPTPRP, for which the “shrunken log2 fold change” value was 0.973.

RRIRNRPPRLPRPRPRPKQTPRP: the “shrunken log2 fold change” value was found to be 0.317.

Regarding RRIRERPPRLPRPRPRPCDFPRP, the “shrunken log2 fold change” value is -0.502.

RRIRFRPPRLPRPRPRPTKCPRP: the “shrunken log2 fold change” value was determined as 0.0225.

As to RRIRRRPPRLPRPRPRPPHKPRP, the “shrunken log2 fold change” value was 1.77.

Consider RRIRLRPPRLPRPRPRPRRGPRP, for which the “shrunken log2 fold change” value turned out to be 0.543.

Regarding RRIRSRPPRLPRPRPRPHTQPRP, the “shrunken log2 fold change” value is -0.433.

As for RRIRCRPPRLPRPRPRPLINPRP, the “shrunken log2 fold change” value was -0.621.

Regarding RRIRYRPPRLPRPRPRPMTNPRP, the “shrunken log2 fold change” value was -1.55.

Regarding RRIRYRPPRLPRPRPRPMCIPRP, the “shrunken log2 fold change” value was -0.101.

RRIRCRPPRLPRPRPRPNHFPRP: the “shrunken log2 fold change” value is -0.484.

With RRIRLRPPRLPRPRPRPGLIPRP, the “shrunken log2 fold change” value is 0.045.

In the case of RRIRMRPPRLPRPRPRPMQIPRP, the “shrunken log2 fold change” value came out at 0.0553.

Turning to RRIRIRPPRLPRPRPRPLIWPRP, the “shrunken log2 fold change” value was -0.236.

RRIRTRPPRLPRPRPRPNMTPRP: the “shrunken log2 fold change” value is -0.0848.

Turning to RRIRSRPPRLPRPRPRPSGVPRP, the “shrunken log2 fold change” value is -0.0112.

RRIRSRPPRLPRPRPRPNLAPRP: the “shrunken log2 fold change” value is -0.14.

On to RRIRCRPPRLPRPRPRPKFHPRP, for which the “shrunken log2 fold change” value is -0.498.

For RRIRFRPPRLPRPRPRPPIEPRP, the “shrunken log2 fold change” value was -0.201.

RRIRKRPPRLPRPRPRPLFHPRP: the “shrunken log2 fold change” value worked out at 0.0214.

On to RRIRMRPPRLPRPRPRPFMLPRP, for which the “shrunken log2 fold change” value is -0.213.

For RRIRVRPPRLPRPRPRPFSVPRP, the “shrunken log2 fold change” value was -0.299.

Consider RRIRNRPPRLPRPRPRPSELPRP, for which the “shrunken log2 fold change” value was -0.135.

For the sequence RRIRRRPPRLPRPRPRPSYGPRP, the “shrunken log2 fold change” value was -0.83.

For the sequence RRIRGRPPRLPRPRPRPLCWPRP, the “shrunken log2 fold change” value is 0.774.

For the sequence RRIRIRPPRLPRPRPRPDHQPRP, the “shrunken log2 fold change” value is -0.0128.

Regarding RRIRQRPPRLPRPRPRPWYYPRP, the “shrunken log2 fold change” value stood at 0.0179.

For RRIRKRPPRLPRPRPRPDWPPRP, the “shrunken log2 fold change” value is 0.168.

On to RRIRPRPPRLPRPRPRPLPRPRP, for which the “shrunken log2 fold change” value worked out at 0.443.

For RRIRCRPPRLPRPRPRPKWTPRP, the “shrunken log2 fold change” value is -0.0568.

As to RRIRQRPPRLPRPRPRPNCGPRP, the “shrunken log2 fold change” value is 0.0184.

Turning to RRIRVRPPRLPRPRPRPFFRPRP, the “shrunken log2 fold change” value turned out to be 0.0448.

For RRIRERPPRLPRPRPRPPVTPRP, the “shrunken log2 fold change” value was -0.152.
